Measurements from PMC11009304.

Experiments:
[1] = target: human parainfluenza virus type 3 (hPIV3) phosphoprotein (P) (human parainfluenza virus type 3 (hPIV3)) (UniProt P06162); experiment: cryo-EM structure
[2] = target: hPIV3 L–P polymerase complex (L–P4) (human parainfluenza virus type 3 (hPIV3)) (UniProt P12577); experiment: SEC-MALS; purified L–P complex on an XBridge Protein BEH SEC column (200 Å) with a DAWN MALS detector, 0.5 ml/min, buffer B; bovine serum albumin as control
[3] = target: hPIV3 L–P polymerase complex (L–P4) (human parainfluenza virus type 3 (hPIV3)) (UniProt P12577); experiment: SEC; analytical SEC of the purified L–P complex, Superdex 200 Increase 5/150 GL, buffer B (20 mM Tris-HCl pH 7.5, 300 mM NaCl, 1% glycerol, 6 mM MgSO4, 1 mM DTT), calibrated with standard markers

Row | Substance | stoichiometry N [1] | stoichiometry N [2] | stoichiometry N [3]
1 | human parainfluenza virus type 3 (hPIV3) phosphoprotein (P) (from UniProt P06162 1-604) (natural protein) | 4 |  | 
2 | hPIV3 L–P polymerase complex (L–P4) (from UniProt P12577;P06162) |  | 2 | 2
